From patent US6200577A, “Anti-herpesviral agents and assays therefor” (priority 1996, dated 2001)

Tests used:
Design in all cases: species or system HSV-1
[1] = biological target: T1, VP16 (Human herpesvirus 1, UniProt P06492); assay: ELISA of direct binding of VP16 to plate-coated peptides; settings: wells coated with peptide up to 500 μg/ml; VP16 1.6 μg/ml; FIG. 10
T1 construct: Plasmid pETVP16 was used to express full-length VP16 under the control of the T7 RNA polymerase promoter; made in house; host or cells: E. coli BL21(DE3)
Experimental: FIG. 10 Binding of VP16 to peptides. Microtitre plates were coated with 5-fold dilutions of peptides ranging from 500 μg/ml to 1 μg/ml and blocked with PBS/10% NCS. VP16 was then added to a final concentration of 1.6 μg/ml and detected with LP1. The legend for the peptides added is shown to the right of the graph.
Dilutions of proteins in PBS were coated overnight onto flat bottomed micro-titre plates (Dynatech) at 37° C. and then blocked with either 2% BSA or 10% new-born calf serum (NCS) in PBS for 1 hour at 37° C. Specific binding of a second protein to the plate-bound protein was performed for 1.5-2 hours at ambient temperature. a Excess secondary protein was removed by washing four times with PBS, 0.3% Tween 20. Bound protein was detected by incubation for 1.5-2 hours with LP1 antibody in PBS, 1% gelatin or PBS, 2% NCS. The bound antibody was detected by incubation for 1 hour at ambient temperature with anti-mouse antibody conjugated to HRP (1:500) and visualised with Smg/ml enzyme substrate 2,2'-azino-bis(3-ethylbenzthiazoline-6-sulphonic acid) (ABTS; Sigma) in citrate-phosphate buffer containing 6 μl hydrogen peroxide in a total volume of 20 ml. Optical densities were measured on a Titertek Multiscan PLUS instrument.
To examine whether VP16 could bind directly to the peptides, wells were coated with each peptide (A-J) at a range of concentrations from […] to 500 μg/ml and the plate was then blocked with […]. […] Nonetheless, the data for peptides D and E implicate direct binding of these peptides to VP16 as the mechanism for inhibiting its interaction with VP22. Peptide H also was active in experiments which prevented gB binding to VP22trunc [Section 4 (iii)] and thus also forms an aspect of the invention.

[2] = biological target: T2, VP16/full-length VP22 interaction (Human herpesvirus 1, UniProt P06492); assay: Far Western analysis of peptides blocking VP16 binding to full-length VP22 (vUL49ep L-particle extract); settings: strips pre-incubated with 1 mg peptide, FIG. 8
T2 construct: Plasmid pETVP16 was used to express full-length VP16 under the control of the T7 RNA polymerase promoter; made in house; host or cells: VP16: E. coli BL21(DE3); VP22: L-particles of recombinant virus vUL49ep grown in BHK cells
Experimental: FIG. 8 Blocking of the interaction between VP16 and full length VP22 by pure peptides D and E. A vUL49ep L-particle extract was run on a 10% polyacrylamide gel and the proteins transferred to a nitrocellulose membrane. The blot was cut into strips, with each strip containing the equivalent of approximately 3×10^9 L-particles. Strips were pre-incubated with 1 mg of each of the following peptides: lane 2, no peptide; lane 3, peptide C; lane 4, peptide D; lane 5, peptide E. 2 μg of pure VP16 was then added to each incubation and bound VP16 was detected by LP1 antibody. Two strips were incubated with either LPl (lane 1) or 9220 antibody (lane 6), each at a dilution of 1:1000. The apparent molecular weights of VP16 (65 KDa) and tagged VP22 (40 KDa) are shown.
(§1) Following electrophoresis, proteins were electrotransferred to either Hybond or ProBlott (Applied Biosystems) membrane and the membrane was incubated in renaturation buffer (50 mM Tris-HCl, pH 8.0, 150 mM NaCl, 10% glycerol, 1 mM DTT) at 4° C. for 5-6 hours.
For membranes probed with either VP16 or VP22trunc, blocking was performed overnight as described for Western blot analysis. Probing with epitope-tagged VP22 or VP16 was performed in 20 mM Tris-HCl, pH 8.0, 250 mM NaCl for 1.5 hours at ambient temperature. Excess probe was removed by washing 4 times (10 minutes per wash) in 20 mM Tris-HCl, pH8.0, 250 mM NaCl, followed by incubation with the appropriate antibody at a dilution of 1:1000 in TTBS/1% gelatin for 1.5-2 hours. Bound antibody was detected as described for Western blot analysis.
The results presented thus far have established that peptides D and E block the interaction between VP16 and VP22trunc. The inhibitory effect of the peptides was further tested to examine whether they were capable of blocking the interaction of VP16 with full-length VP22.

[3] = biological target: T3, gB/VP22trunc binding (Human herpesvirus 1, UniProt P10211); assay: Far Western analysis of peptide inhibition of GST-gB binding to VP22trunc; settings: peptide 250 μg/ml co-incubated with GST-gB 1.2 μg/ml; FIG. 12B
T3 construct: linked residues 798 to 904 of gB to the glutathione-S-transferase (GST) protein expressed by pGex2TNMCR; made in house; host or cells: GST-gB: E. coli DH5alpha; VP22trunc: E. coli BL21(DE3)
Experimental: (B) Inhibition of binding of GST-gB (final concentration 1.2 μg/ml)and each of the following peptides at a final concentration of 250 μg/ml: lane 1, no peptide; lane 2, peptide A; lane 3, peptide B; lane 4, peptide C; lane 5, peptide D; lane 6, peptide E; lane 7, peptide F; lane 8, peptide G; lane 9, peptide H; lane 10, peptide I; lane 11, peptide J. Bound GST-gB was detected with anti-GST antibody.
as §1
For membranes probed with GST-gB, blocking was performed overnight in PBSA containing 1% non-fat dried milk and 0.05% Tween 20 at 4° C. Membranes were then washed twice in renaturation buffer (10 min/wash) prior to incubation with fusion protein (final concentration 0.5 μg/ml) in renaturation buffer containing 1% BSA. Incubation was again performed overnight at 4° C. Following washing with renaturation buffer (four times, 10 minutes/wash) and a brief rinse with blocking buffer, the membrane was incubated with anti-GST antibody in PBSA, 1% non-fat dried milk, 0.05% Tween 20 and 1% BSA for 1 hour at ambient temperature. After four washes with PBSA, 0.05% Tween 20 (10 minutes/wash), bound antibody was detected with secondary antibody (goat anti-rabbit IgG, whole molecule; Sigma) conjugated to Horse Radish Peroxidase (HRP) by incubating at room temperature for 45 minutes. Following four further washes with PBSA, 0.05% Tween 20, the secondary antibody was visualised by enhanced chemiluminescence.
Similar to the studies performed with inhibition of binding of VP16 to VP22, peptides A to J, which span residues 18 to 144 of VP22trunc, were used to examine whether gB binding could also be prevented (FIG. 12B).

T1 sequence (P06492 whole entry): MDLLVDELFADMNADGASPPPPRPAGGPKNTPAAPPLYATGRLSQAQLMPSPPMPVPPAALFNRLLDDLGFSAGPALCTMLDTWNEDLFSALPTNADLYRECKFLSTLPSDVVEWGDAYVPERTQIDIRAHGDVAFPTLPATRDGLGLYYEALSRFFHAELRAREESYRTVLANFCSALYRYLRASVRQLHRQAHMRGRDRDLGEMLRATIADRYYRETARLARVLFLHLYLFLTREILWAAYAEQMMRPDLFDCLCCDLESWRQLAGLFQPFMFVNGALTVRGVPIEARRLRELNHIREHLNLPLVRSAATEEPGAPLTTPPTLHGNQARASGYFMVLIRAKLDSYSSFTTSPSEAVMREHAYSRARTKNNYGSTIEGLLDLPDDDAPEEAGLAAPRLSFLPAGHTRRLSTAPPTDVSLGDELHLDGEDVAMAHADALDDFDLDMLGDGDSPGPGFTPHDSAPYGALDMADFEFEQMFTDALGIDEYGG
T2 sequence (P06492 whole entry): as above
T3 sequence (P10211 798-904): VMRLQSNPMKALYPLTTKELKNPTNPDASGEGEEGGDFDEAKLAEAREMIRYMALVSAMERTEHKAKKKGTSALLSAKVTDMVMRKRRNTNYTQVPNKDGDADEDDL

Sequence	Direct binding of VP16 to plate-coated peptide (ELISA) [1]	Blocking of VP16 binding to full-length VP22 (Far Western) [2]	Inhibition of GST-gB binding to VP22trunc (Far Western) [3]
CAAVGRLAAMHARMAAVQLW [Peptide E]	binding was found with higher concentrations	completely blocks binding of VP16 to VP22	completely inhibited binding of gB
FSTAPPNPDAPWTPRVAGFN [Peptide C]	binding did not occur	does not hinder the interaction	
TPRVAGFNKRVFCAAVGRLA [Peptide D]	binding was found with higher concentrations	completely blocks binding of VP16 to VP22	completely inhibited binding of gB
